Positions count from the first letter of the chain named. Names may count otherwise.
B1: MIF(Y100H) variant (enzyme, human)
chain: MPMFIVNTNVPRASVPDGFLSELTQQLAQATGKPPQYIAVHVVPDQLMAFGGSSEPCALCSLHSIGKIGGAQNRSYSKLLCGLLAERLRISPDRVYINYHDMNAANVGWNNSTFA
B2: MIF(S61H/Y100H) variant (enzyme, human)
chain: B1 chain with S61H

Key:
dynamic light scattering = target: the molecule itself; test: dynamic light scattering
crystal structure = target: the molecule itself; test: crystal structure

Row | Protein | stoichiometry N (dynamic light scattering) | binding result (crystal structure)
1 | B1 | 3 | –
2 | B2 | – | binds

Reference: publication PMC12313933 (Nature Communications, 2025)
